The test has as its target GST-Smad4-linker-MH2. Put plainly: GST pull-down, immunoblot band quantification. The following applies: HEK293T cell lysate; n=3; read off a plot.

Arl15-WT-GFP A86L returned an other: relative amount of Arl15-AL-GFP pulled down of 1.1.

The values above are taken from paper PMC9352346.
